Data taken from patent US20210132079A1 (UCB, published 2021).

Key:
[1] = target: T1, human TNFα in complex with compound (2) (human, UniProt P01375 77-233); test: SPR BIAcore, compound-bound against apo TNFα
T1 construct: also called human TNFα + compound (2)

[2] = target: T2, human TNFα in complex with compound (1) (human, UniProt P01375 77-233); test: SPR BIAcore, compound-bound against apo TNFα
T2 construct: also called human TNFα + compound (1); TNFα-compound (1) complex
T2 sequence (P01375 77-233 limits assumed, one chain of several): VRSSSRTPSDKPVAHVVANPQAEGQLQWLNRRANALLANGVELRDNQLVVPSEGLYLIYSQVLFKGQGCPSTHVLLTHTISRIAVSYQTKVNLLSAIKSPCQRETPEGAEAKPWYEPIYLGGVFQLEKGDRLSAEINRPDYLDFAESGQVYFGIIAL

T1 sequence (P01375 77-233 limits assumed, one chain of several): as above

B1: CA185_01979 mouse IgG1 (mIgG1, kappa) (antibody, V domains shown)
VH: EVHLVESGPGLVKPSQSLSLTCSVTGYSITNSYWDWIRKFPGNKMEWMGYINYSGSTGYNPSLKSRISISRDTSNNQFFLQLNSITTEDTATYYCARGTYGYNAYHFDYWGRGVMVTVSS
VL: DIQMTQSPASLSASLEEIVTITCQASQDIGNWLSWYQQKPGKSPHLLIYGTTSLADGVPSRFSGSRSGTQYSLKISGLQVADIGIYVCLQAYSTPFTFGSGTKLEIKR
notes: also called CA185_01979.0; VR0001842
With B1 the “log selective binding against apo human TNFα” value [1] was over 2 log and the “log selective binding against apo human TNFα” value [2] was over 2 log.
